Assay results published in IntAct's records for PubMed 21240188.

B1: Fanconi anemia group J protein (Homo sapiens), Q9BX63 (parent)
chain: MSSMWSEYTIGGVKIYFPYKAYPSQLAMMNSILRGLNSKQHCLLESPTGSGKSLALLCSALAWQQSLSGKPADEGVSEKAEVQLSCCCACHSKDFTNNDMNQGTSRHFNYPSTPPSERNGTSSTCQDSPEKTTLAAKLSAKKQASIYRDENDDFQVEKKRIRPLETTQQIRKRHCFGTEVHNLDAKVDSGKTVKLNSPLEKINSFSPQKPPGHCSRCCCSTKQGNSQESSNTIKKDHTGKSKIPKIYFGTRTHKQIAQITRELRRTAYSGVPMTILSSRDHTCVHPEVVGNFNRNEKCMELLDGKNGKSCYFYHGVHKISDQHTLQTFQGMCKAWDIEELVSLGKKLKACPYYTARELIQDADIIFCPYNYLLDAQIRESMDLNLKEQVVILDEAHNIEDCARESASYSVTEVQLRFARDELDSMVNNNIRKKDHEPLRAVCCSLINWLEANAEYLVERDYESACKIWSGNEMLLTLHKMGITTATFPILQGHFSAVLQKEEKISPIYGKEEAREVPVISASTQIMLKGLFMVLDYLFRQNSRFADDYKIAIQQTYSWTNQIDISDKNGLLVLPKNKKRSRQKTAVHVLNFWCLNPAVAFSDINGKVQTIVLTSGTLSPMKSFSSELGVTFTIQLEANHIIKNSQVWVGTIGSGPKGRNLCATFQNTETFEFQDEVGALLLSVCQTVSQGILCFLPSYKLLEKLKERWLSTGLWHNLELVKTVIVEPQGGEKTNFDELLQVYYDAIKYKGEKDGALLVAVCRGKVSEGLDFSDDNARAVITIGIPFPNVKDLQVELKRQYNDHHSKLRGLLPGRQWYEIQAYRALNQALGRCIRHRNDWGALILVDDRFRNNPSRYISGLSKWVRQQIQHHSTFESALESLAEFSKKHQKVLNVSIKDRTNIQDNESTLEVTSLKYSTSPYLLEAASHLSPENFVEDEAKICVQELQCPKIITKNSPLPSSIISRKEKNDPVFLEEAGKAEKIVISRSTSPTFNKQTKRVSWSSFNSLGQYFTGKIPKATPELGSSENSASSPPRFKTEKMESKTVLPFTDKCESSNLTVNTSFGSCPQSETIISSLKIDATLTRKNHSEHPLCSEEALDPDIELSLVSEEDKQSTSNRDFETEAEDESIYFTPELYDPEDTDEEKNDLAETDRGNRLANNSDCILAKDLFEIRTIKEVDSAREVKAEDCIDTKLNGILHIEESKIDDIDGNVKTTWINELELGKTHEIEIKNFKPSPSKNKGMFPGFK

Variants of: B1
Settings: with brca1_human BRCA1, P38398
brca1_human BRCA1, P38398, sequence (P38398 whole entry, looked up): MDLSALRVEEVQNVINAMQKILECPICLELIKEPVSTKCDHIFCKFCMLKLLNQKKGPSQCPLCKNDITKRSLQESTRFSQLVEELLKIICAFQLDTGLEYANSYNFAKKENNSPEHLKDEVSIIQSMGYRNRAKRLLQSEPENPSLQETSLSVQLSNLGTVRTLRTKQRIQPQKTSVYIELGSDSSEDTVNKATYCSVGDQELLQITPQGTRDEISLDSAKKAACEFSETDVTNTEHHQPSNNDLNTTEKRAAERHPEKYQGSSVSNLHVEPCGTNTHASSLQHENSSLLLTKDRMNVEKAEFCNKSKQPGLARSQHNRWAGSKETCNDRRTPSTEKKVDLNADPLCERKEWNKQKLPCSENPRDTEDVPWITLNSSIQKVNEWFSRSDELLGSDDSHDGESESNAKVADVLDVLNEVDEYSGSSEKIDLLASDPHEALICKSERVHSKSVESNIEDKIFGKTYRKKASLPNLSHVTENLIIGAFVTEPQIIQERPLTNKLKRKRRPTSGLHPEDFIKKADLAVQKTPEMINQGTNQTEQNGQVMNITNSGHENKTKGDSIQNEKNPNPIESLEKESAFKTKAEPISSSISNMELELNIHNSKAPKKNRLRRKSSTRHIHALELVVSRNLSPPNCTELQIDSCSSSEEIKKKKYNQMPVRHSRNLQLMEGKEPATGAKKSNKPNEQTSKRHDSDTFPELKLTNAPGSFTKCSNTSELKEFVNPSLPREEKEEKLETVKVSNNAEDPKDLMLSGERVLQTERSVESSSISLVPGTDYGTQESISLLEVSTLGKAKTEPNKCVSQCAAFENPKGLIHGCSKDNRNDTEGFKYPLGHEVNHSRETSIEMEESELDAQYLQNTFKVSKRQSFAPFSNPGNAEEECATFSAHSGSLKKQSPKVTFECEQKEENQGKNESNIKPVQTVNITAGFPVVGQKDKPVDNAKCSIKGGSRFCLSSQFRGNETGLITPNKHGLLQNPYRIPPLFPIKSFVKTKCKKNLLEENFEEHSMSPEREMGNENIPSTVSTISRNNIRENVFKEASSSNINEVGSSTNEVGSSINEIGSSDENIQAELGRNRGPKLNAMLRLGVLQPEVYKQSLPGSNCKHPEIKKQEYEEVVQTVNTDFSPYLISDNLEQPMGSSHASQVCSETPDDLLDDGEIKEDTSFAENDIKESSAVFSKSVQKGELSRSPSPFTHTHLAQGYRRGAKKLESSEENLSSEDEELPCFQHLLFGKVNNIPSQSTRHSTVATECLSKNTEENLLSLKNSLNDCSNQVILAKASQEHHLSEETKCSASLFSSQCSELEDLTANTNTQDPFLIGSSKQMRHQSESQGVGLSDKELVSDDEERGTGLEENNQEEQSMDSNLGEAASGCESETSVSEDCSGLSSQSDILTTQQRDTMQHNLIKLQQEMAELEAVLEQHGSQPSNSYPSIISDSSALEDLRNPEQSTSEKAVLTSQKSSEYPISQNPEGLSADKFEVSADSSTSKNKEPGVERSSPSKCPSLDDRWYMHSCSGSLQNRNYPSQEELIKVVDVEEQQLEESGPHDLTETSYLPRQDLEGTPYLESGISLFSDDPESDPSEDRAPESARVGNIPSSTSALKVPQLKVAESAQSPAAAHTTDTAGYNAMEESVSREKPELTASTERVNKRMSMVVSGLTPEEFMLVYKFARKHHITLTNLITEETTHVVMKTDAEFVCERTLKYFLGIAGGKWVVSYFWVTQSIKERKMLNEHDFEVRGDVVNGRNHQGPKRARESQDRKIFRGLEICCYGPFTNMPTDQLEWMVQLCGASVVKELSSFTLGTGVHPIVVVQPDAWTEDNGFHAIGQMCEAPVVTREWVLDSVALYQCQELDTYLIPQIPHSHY

| effect of a mutation on the interaction | Variant |
| --- | --- |
| disrupting interaction | S990A |
